Laboratory results: publication PMC6444592, “Citrullination of HP1γ chromodomain affects association with chromatin” (Epigenetics & Chromatin, 2019)

Target: H3K9me3(1–16) peptide

HP1γ citrullination by PADI4 in the in vitro citrullination assay with added H3K9me3 peptides (immunoblot with anti-peptidyl-citrulline antibody; fold change against unmethylated H3 peptide): 2 fold
Substance: GST-HP1γWT (recombinant full-length mouse heterochromatin protein 1 gamma, wild type) (from UniProt P23198 1-183) (natural protein)
